Kd data for 2 substances are collected here from publication PMC4522201.

pKd: −log10 of the molar value.

For this assay, the target named is CEP-HSA (2-(ω-carboxyethyl)pyrrole derivative of HSA) (human) (UniProt P02768). Description: SPR. For orientation: In SPR one partner is held on a chip, and binding of the other changes the refractive index at the surface.

“CD36-Fc chimera (from UniProt P16671 1-472) (Fc fusion)” had a pKd of 8.19.
Consider “TLR2-Fc chimera (from UniProt O60603 21-588) (Fc fusion)”, for which the negative logarithm of the Kd (pKd) is 7.93.

The term pKd denotes −log10 of the Kd, conventionally taken in molar units.
